From US20150166666A1 (Chugai, published 2015)
Read-outs that look alike come from different tables or passages of the source. Values belong to the binder of their own block, whether it stands above or below them.

Columns and labels:
[1] = target: T1, Soluble human FcRn (complex of FcRn and beta2-microglobulin) (human, UniProt P55899 24-290; P16213 21-119); assay: Biacore, binding to human FcRn
T1 construct: Both constructs are stated with their signal regions (Met1-Leu290; Met1-Met119)

[2] = target: T2, Soluble recombinant human IL-6 receptor (SR344) (human, UniProt P08887 20-344, biotinylated (sites not given) only in the membrane-type dissociation assay); assay: SPR, Biacore T100, biotinylated SR344 on streptavidin chip as membrane-type IL-6 receptor, ratio of dissociation rates
T2 construct: range 1-344; also called soluble IL-6 receptor; soluble human IL-6 receptor
T2 sequence (looked up): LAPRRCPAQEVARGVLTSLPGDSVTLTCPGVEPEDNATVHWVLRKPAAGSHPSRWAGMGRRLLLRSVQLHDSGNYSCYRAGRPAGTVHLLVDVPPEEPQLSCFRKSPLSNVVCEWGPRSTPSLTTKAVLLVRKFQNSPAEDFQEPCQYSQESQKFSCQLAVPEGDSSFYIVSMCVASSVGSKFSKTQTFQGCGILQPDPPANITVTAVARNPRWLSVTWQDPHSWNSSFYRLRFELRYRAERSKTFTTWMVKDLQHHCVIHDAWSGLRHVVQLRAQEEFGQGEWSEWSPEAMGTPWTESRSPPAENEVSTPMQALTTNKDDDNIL
Procedure: (§1) The antigen-antibody reaction with membrane-type IL-6 receptor at pH 5.8 and pH 7.4 was observed using Biacore T100 (GE Healthcare). The binding to membrane-type IL-6 receptor was assessed by evaluating the binding to soluble human IL-6 receptor immobilized onto the sensor chip. SR344 was biotinylated by a method known to those skilled in the art. Based on the affinity between biotin and streptavidin, biotinylated soluble human IL-6 receptor was immobilized onto the sensor chip via streptavidin. All measurements were conducted at 37° C. The mobile phase buffer was 10 mM MES (pH 5.8), 150 mM NaCl, and 0.05% Tween 20. […] The dissociation rate constant (kd (1/s)) at pH 5.8 was calculated using Biacore T100 Evaluation Software (GE Healthcare) by fitting only the dissociation phase at pH 5.8. The sample concentration was 0.25 μg/ml. Binding was carried out in 10 mM MES (pH 7.4), 150 mM NaCl, and 0.05% Tween 20, and dissociation was carried out in 10 mM MES (pH 5.8), 150 mM NaCl, and 0.05% Tween 20. Likewise, the dissociation rate constant (kd (1/s)) at pH 7.4 was calculated using Biacore T100 Evaluation Software (GE Healthcare) by fitting only the dissociation phase at pH 7.4. The sample concentration was 0.5 μg/ml. Binding was carried out in 10 mM MES (pH 7.4), 150 mM NaCl, and 0.05% Tween 20, and dissociation was carried out in 10 mM MES (pH 7.4), 150 mM NaCl, and 0.05% Tween 20.

[3] = target: T2, Soluble recombinant human IL-6 receptor …; assay: as above; remark: listed apart in the source
Procedure: The rates of dissociation of TOCILIZUMAB, Fv3-M73, and Fv4-M73 from membrane-type IL-6 receptor at pH 7.4 and 5.8 were determined.
as §1

[4] = target: T1, Soluble human FcRn (complex of FcRn and …); assay: Biacore, binding to human FcRn; remark: listed apart in the source
[5] = target: T2, Soluble recombinant human IL-6 receptor …; assay: cell-based or functional assay
[6] = target: T2, Soluble recombinant human IL-6 receptor …; assay: SPR, Biacore T100, antibody captured on chip, soluble IL-6 receptor as analyte; ratio against TOCILIZUMAB
Procedure: (§2) Antigen-antibody reaction kinetics was analyzed using Biacore T100 (GE Healthcare). The soluble human IL-6 receptor-antibody interaction was measured by immobilizing appropriate amounts of protein A or protein A/G or anti-IgG (γ-chain specific) F(ab′)2 onto a sensor chip by amine coupling method, binding antibodies of interest onto the chip at pH7.4, and then running soluble IL-6 receptor adjusted to various concentrations at pH7.4 over the chip as an analyte. All measurements were carried out at 37° C. The kinetic parameters, association rate constant kₐ (1/Ms) and dissociation rate constant kd (1/s) were calculated from the sensorgrams obtained by measurement. Then, KD (M) was determined based on the rate constants. The respective parameters were determined using Biacore T100 Evaluation Software (GE Healthcare).

[7] = target: T2, Soluble recombinant human IL-6 receptor …; assay: cell-based or functional assay; remark: listed apart in the source
[8] = target: T2, Soluble recombinant human IL-6 receptor …; assay: SPR, Biacore T100, soluble IL-6 receptor as analyte
Procedure: as §2

fold superior binding than TOCILIZUMAB-IgG1 [1]: ~1.4 times
B1: TOCILIZUMAB-M58 (H chain WT-M58; L chain WT-kappa) (antibody, IgG2)
heavy: QVQLQESGPGLVRPSQTLSLTCTVSGYSITSDHAWSWVRQPPGRGLEWIGYISYSGITTYNPSLKSRVTMLRDTSKNQFSLRLSSVTAADTAVYYCARSLARTTAMDYWGQGSLVTVSSASTKGPSVFPLAPSSKSTSGGTAALGCLVKDYFPEPVTVSWNSGALTSGVHTFPAVLQSSGLYSLSSVVTVPSSNFGTQTYTCNVDHKPSNTKVDKTVERKSCVECPPCPAPPVAGPSVFLFPPKPKDTLMISRTPEVTCVVVDVSQEDPEVQFNWYVDGVEVHNAKTKPREEQFNSTFRVVSVLTVVHQDWLNGKEYKCKVSNKGLPAPIEKTISKTKGQPREPQVYTLPPSQEEMTKNQVSLTCLVKGFYPSDIAVEWESNGQPENNYKTTPPMLDSDGSFFLYSKLTVDKSRWQEGNVFSCSVMHEALHNHYTQKSLSLSP
light: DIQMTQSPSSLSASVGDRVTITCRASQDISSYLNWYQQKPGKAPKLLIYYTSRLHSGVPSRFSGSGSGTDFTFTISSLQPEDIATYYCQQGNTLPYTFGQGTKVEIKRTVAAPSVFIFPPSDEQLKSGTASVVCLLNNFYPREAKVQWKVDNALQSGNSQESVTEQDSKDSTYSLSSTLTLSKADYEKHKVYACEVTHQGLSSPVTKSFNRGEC
notes: M58 constant region: altered IgG2 (SKSC with further changes, Gly446 and Lys447 deleted)

fold superior binding than TOCILIZUMAB-IgG1 [1]: ~3.8 times
B2: TOCILIZUMAB-M73 (H chain WT-M73; L chain WT-kappa) (antibody)
heavy: QVQLQESGPGLVRPSQTLSLTCTVSGYSITSDHAWSWVRQPPGRGLEWIGYISYSGITTYNPSLKSRVTMLRDTSKNQFSLRLSSVTAADTAVYYCARSLARTTAMDYWGQGSLVTVSSASTKGPSVFPLAPSSKSTSGGTAALGCLVKDYFPEPVTVSWNSGALTSGVHTFPAVLQSSGLYSLSSVVTVPSSNFGTQTYTCNVDHKPSNTKVDKTVERKSCVECPPCPAPPVAGPSVFLFPPKPKDTLMISRTPEVTCVVVDVSQEDPEVQFNWYVDGVEVHNAKTKPREEQFNSTFRVVSVLTVVHQDWLNGKEYKCKVSNKGLPAPIEKTISKTKGQPREPQVYTLPPSQEEMTKNQVSLTCLVKGFYPSDIAVEWESNGQPENNYKTTPPMLDSDGSFFLYSKLTVDKSRWQEGNVFSCSVMHEALHAHYTQKSLSLSP
light: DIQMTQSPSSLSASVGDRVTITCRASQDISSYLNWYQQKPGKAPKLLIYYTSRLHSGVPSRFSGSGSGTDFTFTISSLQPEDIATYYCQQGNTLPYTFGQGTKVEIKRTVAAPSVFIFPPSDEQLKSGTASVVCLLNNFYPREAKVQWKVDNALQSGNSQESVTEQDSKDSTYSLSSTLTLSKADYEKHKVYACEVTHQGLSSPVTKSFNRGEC
notes: M73 constant region: M58 with asparagine 434 (EU) changed to alanine

kd (pH 5.8)/kd (pH 7.4), pH … [2]: 1 | kd (pH 5.8)/kd (pH 7.4), pH … [3]: 1 | Kd [4]: 1.62 µM | IC50 (read off the curve) [5]: ~0.5 µg/mL
B3: TOCILIZUMAB (H chain WT-IgG1; L chain WT-kappa) (antibody)
heavy: not shown
light: not shown
notes: IgG1/kappa; also called TOCILIZUMAB-IgG1; humanized anti-IL-6 receptor IgG1 antibody

fold affinity relative to TOCILIZUMAB [6]: ~60 times | IC50 (read off the curve) [7]: ~0.02 µg/mL | fold higher affinity than TOCILIZUMAB [8]: ~60 times
B4: RDC-23 (H chain RDC23H-IgG1; L chain RDC-23L-kappa) (antibody, V domains shown)
VH: QVQLQESGPGLVRPSQTLSLTCTVSGYSITSDHAWSWVRQPPGRGLEWIGYISYSGITTYNPSLKSRVTMLRDTSKNQFSLRLSSVTAADTAVYYCARVLARITAMDYWGQGSLVTVSS
VL: DIQMTQSPSSLSASVGDRVTITCRASQDISSYLNWYQQKPGKAPKLLIYYTSRLHSGVPSRFSGSGSGTDFTFTISSLQPEDIATYYCGQGNRLPYTFGQGTKVEIKR

fold higher affinity than TOCILIZUMAB [8]: ~6 times | IC50 (read off the curve) [5]: ~0.1 µg/mL
B5: H53/L28 (H chain H53-IgG1; L chain L28-kappa) (antibody, V domains shown)
VH: QVQLQESGPGLVKPSETLSLTCAVSGYSISDDHAWSWVRQPPGEGLEWIGYISYSGITNYNPSLKGRVTISRDTSKNQFSLKLSSVTAADTAAYYCARSLARTTAMDYWGEGTLVTVSS
VL: DIQMTQSPSSLSASVGDSVTITCQASQDISSYLNWYQQKPGKAPELLIYYGSELHSGVPSRFSGSGSGTDFTFTISSLEAEDAATYYCQQGNSLPYTFGQGTKVEIER
notes: IgG1/kappa; also called TOCILIZUMAB with reduced isoelectric point

kd (pH 5.8)/kd (pH 7.4), pH … [3]: 10.9
B6: Fv3-M73 (H chain VH4-M73; L chain VL1-kappa) (antibody, V domains shown)
VH: QVQLQESGPGLVKPSETLSLTCAVSGHSISHDHAWSWVRQPPGEGLEWIGFISYSGITNYNPTLQGRVTISRDNSKNTLYLQMNSLRAEDTAVYYCARSLARTTAMDYWGEGTLVTVSS
VL: DIQMTQSPSSLSASVGDSVTITCQASRDISSHLNWYQQKPGKAPELLIYYGSHLLSGVPSRFSGSGSGTDFTFTISSLEAEDAATYYCGQGNRLPYTFGQGTKVEIER
notes: Fully humanized

kd (pH 5.8)/kd (pH 7.4), pH … [3]: 10.1
B7: Fv4-M73 (H chain VH3-M73; L chain VL3-kappa) (antibody, V domains shown)
VH: QVQLQESGPGLVKPSETLSLTCAVSGHSISHDHAWSWVRQPPGEGLEWIGFISYSGITNYNPSLQGRVTISRDNSKNTLYLQMNSLRAEDTAVYYCARSLARTTAMDYWGEGTLVTVSS
VL: DIQMTQSPSSLSASVGDSVTITCQASTDISSHLNWYQQKPGKAPELLIYYGSHLLSGVPSRFSGSGSGTDFTFTISSLEAEDAATYYCGQGNRLPYTFGQGTKVEIER
notes: Fully humanized

kd (pH 5.8)/kd (pH 7.4), pH … [2]: 2.59
B8: H3pI/L73 (H chain H3pI-IgG1; L chain L73-kappa) (antibody, V domains shown)
VH: QVQLQESGPGLVKPSETLSLTCAVSGHSISHDHAHSWVRQPPGEGLEWIGYISYSGITNYNPSLKGRVTISRDTSKNQFSLKLSSVTAADTAAYYCARSLARTTAMDYWGEGTLVTVSS
VL: DIQMTQSPSSLSASVGDSVTITCQASQHISSHLNWYQQKPGKAPELLIYYGSHLHSGVPSRFSGSGSGTDFTFTISSLEAEDAATYYCGQGNRLPYTFGQGTKVEIER
notes: IgG1/kappa
